From paper PMC6329974 (Proceedings of the National Academy of Sciences of the …, 2018)

B1: CP β-subunit from Archaeoglobus fulgidus (natural protein, UniProt Q9P996 12-213, looked up)
chain: TTTVGLVCKDGVVMATEKRATMGNFIASKAAKKIYQIADRMAMTTAGSVGDAQFLARIIKIEANLYEIRRERKPTVRAIATLTSNLLNSYRYFPYLVQLLIGGIDSEGKSIYSIDPIGGAIEEKDIVATGSGSLTAYGVLEDRFTPEIGVDEAVELAVRAIYSAMKRDSASGDGIDVVKITEDEFYQYSPEEVEQILAKFRK
B2: CP α-subunit from Archaeoglobus fulgidus (natural protein, UniProt O29760 1-246, looked up)
chain: MHLPQMGYDRAITVFSPDGRLFQVEYAREAVKRGATAIGIKCKEGVILIADKRVGSKLLEADTIEKIYKIDEHICAATSGLVADARVLIDRARIEAQINRLTYDEPITVKELAKKICDFKQQYTQYGGVRPFGVSLLIAGVDEVPKLYETDPSGALLEYKATAIGMGRNAVTEFFEKEYRDDLSFDDAMVLGLVAMGLSIESELVPENIEVGYVKVDDRTFKEVSPEELKPYVERANERIRELLKK
B3: proteasome-activating nucleotidase (PAN) from Archaeoglobus fulgidus (enzyme, UniProt O28303 1-398, looked up)
chain: MGDSEIQYLLEKLKKLEEDYYKLRELYRRLEDEKKFIESERIRYEREVRRLRSEVERLRSPPLLVGVVSDILEDGRVVVKSSTGPKFVVNTSQYINEEELKPGARVALNQQTLAIVNVLPTSKDPMVYGFEVEEKPEVSYEDIGGLDVQIEEIREAVELPLLKPELFAEVGIEPPKGVLLYGPPGTGKTLLAKAVANQTRATFIRVVGSEFVQKYIGEGARLVREVFQLAKEKAPSIIFIDELDAIAARRTNSDTSGDREVQRTMMQLLAELDGFDPRGDVKVIGATNRIDILDPAILRPGRFDRIIEVPLPTFEGRIQIFKIHTRKMKLAEDVDFKELARITEGASGADIKAICTEAGMFAIREERAKVTMLDFTKAIEKVLKKTTPIPDLKGVMFV

How the values were obtained:
Experiment in all cases: cryo-EM structure
[1] = target: B2
[2] = target: the molecule itself
[3] = target: B3
[4] = target: the molecule itself; remark: listed apart in the source

Binder: B1
- binding result [1]: binds
- binding result [2]: binds

Binder: B2
- binding result [3]: binds

Binder: B3
- stoichiometry N [4]: 6
